Measured values published in patent publication US20020123614A1.

Experiments:
iC3b coated on plastic [1] = biological target: iC3b coated on plastic (UniProt P01024); experiment: cell adhesion to immobilized iC3b; -DTT, +activation
iC3b coated on plastic [2] = biological target: iC3b coated on plastic (UniProt P01024); experiment: cell adhesion to immobilized iC3b; -DTT, -activation
iC3b coated on plastic [3] = biological target: iC3b coated on plastic (UniProt P01024); experiment: cell adhesion to immobilized iC3b; +DTT, +activation
[4] = biological target: LFA-1 high affinity open mutant K287C/K294C (αL K287C/K294C with β2) (human) (UniProt P05107); experiment: flow cytometry, 293T; normalised to TS2/4
[5] = biological target: LFA-1 low affinity closed mutant L289C/K294C (αL L289C/K294C with β2) (human) (UniProt P05107); experiment: flow cytometry, 293T; normalised to TS2/4
[6] = biological target: wild-type LFA-1 (αL/β2 complex) (human) (UniProt P05107); experiment: K562 (+CBRLFA-1/2) cell adhesion to immobilized ICAM-1
[7] = biological target: LFA-1 high affinity open mutant K287C/K294C (αL K287C/K294C with β2) (human) (UniProt P05107); experiment: flow cytometry, K562; normalised to TS2/4
[8] = biological target: LFA-1 low affinity closed mutant L289C/K294C (αL L289C/K294C with β2) (human) (UniProt P05107); experiment: flow cytometry, K562; normalised to TS2/4
[9] = biological target: LFA-1 high affinity open mutant K287C/K294C (αL K287C/K294C with β2) (human) (UniProt P05107); experiment: K562 cell adhesion to immobilized ICAM-1
[10] = biological target: LFA-1 single cysteine substitution mutant L289C (human) (UniProt P05107); experiment: flow cytometry, 293T; normalised to TS2/4
[11] = biological target: LFA-1 single cysteine substitution mutant K294C (human) (UniProt P05107); experiment: flow cytometry, 293T; normalised to TS2/4
[12] = biological target: LFA-1 single cysteine substitution mutant K287C (human) (UniProt P05107); experiment: flow cytometry, 293T; normalised to TS2/4
[13] = biological target: wild-type LFA-1 (αL/β2 complex) (human) (UniProt P05107); experiment: cell adhesion to immobilized ICAM-1
[14] = biological target: LFA-1 high affinity open mutant K287C/K294C (αL K287C/K294C with β2) (human) (UniProt P05107); experiment: 293T cell adhesion to immobilized ICAM-1
[15] = biological target: wild-type LFA-1 (αL/β2 complex) (human) (UniProt P05107); experiment: 293T cell adhesion to immobilized ICAM-1
[16] = biological target: isolated mutant K287C/K294C αL I-domain (V130-A338) expressed on K562 cells by the PDGFR transmembrane domain (human) (UniProt P20701); experiment: flow cytometry
[17] = biological target: LFA-1 high affinity open mutant K287C/K294C (αL K287C/K294C with β2) (human) (UniProt P05107); experiment: flow cytometry on transfectants
[18] = biological target: LFA-1 high affinity open mutant K287C/K294C (αL K287C/K294C with β2) (human) (UniProt P05107); experiment: flow cytometry, K562; normalised to TS1/22
[19] = biological target: ICAM-1 purified from human tonsil, immobilized (human) (UniProt P05362); experiment: 293T wild-type LFA-1 cell adhesion to immobilized ICAM-1
[20] = biological target: ICAM-1 purified from human tonsil, immobilized (human) (UniProt P05362); experiment: 293T K287C/K294C LFA-1 cell adhesion to immobilized ICAM-1
[21] = biological target: LFA-1 high affinity open mutant K287C/K294C (αL K287C/K294C with β2) (human) (UniProt P05107); experiment: cell adhesion to immobilized ICAM-1

ICAM-1 purified from human tonsil, immobilized (human), sequence (P05362 28-532 limits assumed, form in doubt): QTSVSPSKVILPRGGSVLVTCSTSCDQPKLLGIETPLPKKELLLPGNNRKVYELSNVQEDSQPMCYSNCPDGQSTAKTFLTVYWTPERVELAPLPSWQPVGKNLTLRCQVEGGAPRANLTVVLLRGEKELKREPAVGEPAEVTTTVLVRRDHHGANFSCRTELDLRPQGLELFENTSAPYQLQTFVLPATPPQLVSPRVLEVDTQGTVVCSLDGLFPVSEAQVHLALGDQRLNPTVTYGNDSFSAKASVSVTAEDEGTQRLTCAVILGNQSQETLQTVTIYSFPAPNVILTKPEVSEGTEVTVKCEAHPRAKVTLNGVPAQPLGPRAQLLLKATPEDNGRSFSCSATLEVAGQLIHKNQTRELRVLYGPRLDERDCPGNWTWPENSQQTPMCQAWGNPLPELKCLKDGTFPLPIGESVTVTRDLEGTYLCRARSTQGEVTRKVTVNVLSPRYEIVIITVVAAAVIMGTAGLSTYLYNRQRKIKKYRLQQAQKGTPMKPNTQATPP
isolated mutant K287C/K294C αL I-domain (V130-A338) expressed on K562 cells by the PDGFR transmembrane domain (human), sequence (P20701 155-363 K312C/K319C limits assumed, form in doubt): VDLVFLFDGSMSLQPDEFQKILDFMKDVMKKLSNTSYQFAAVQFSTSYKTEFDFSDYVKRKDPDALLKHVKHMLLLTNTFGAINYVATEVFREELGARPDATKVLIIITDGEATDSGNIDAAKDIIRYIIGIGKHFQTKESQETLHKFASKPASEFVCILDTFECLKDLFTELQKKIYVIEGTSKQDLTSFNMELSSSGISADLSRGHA

Substance	% wild-type binding [4] [%]	% wild-type binding [5] [%]	% inhibition [6] [%]	% wild-type binding [7] [%]	% wild-type binding [8] [%]	% inhibition [9] [%]	% wild-type binding [10] [%]	% wild-type binding [11] [%]	% wild-type binding [12] [%]	% inhibition [13] [%]	% inhibition [14] [%]	% inhibition [15] [%]	also measured
Mac-1 (αMβ2) mutant D294C/T307C (from UniProt P05107 23-769) (receptor)													percent of binding by activated wild type transfectant (iC3b coated on plastic [1]): 5 to 25%; percent of binding by activated wild type transfectant (iC3b coated on plastic [2]): 0 to 5%
Mac-1 (αMβ2) mutant F297C/A304C (from UniProt P05107 23-769) (receptor)													percent of binding by activated wild type transfectant (iC3b coated on plastic [2]): 0 to 5%
Mac-1 (αMβ2) mutant Q163C/R313C (locked closed) (from UniProt P05107 23-769) (receptor)													percent of binding by activated wild type transfectant (iC3b coated on plastic [1]): 0 to 5%; percent of binding by activated wild type transfectant (iC3b coated on plastic [2]): 0 to 5%; percent of binding by activated wild type transfectant (iC3b coated on plastic [3]): 50 to 75%
Mac-1 (αMβ2) mutant Q298C/N301C (from UniProt P05107 23-769) (receptor)													percent of binding by activated wild type transfectant (iC3b coated on plastic [1]): 5 to 25%; percent of binding by activated wild type transfectant (iC3b coated on plastic [2]): 0 to 5%
anti-β2 (CD18) monoclonal antibody CBRLFA-1/7	95.3	91.7	5.04	95.2	97.2	5.77							
anti-β2 (CD18) monoclonal antibody TS1/18	99.8	95.7	98.5	97.4	106	5.9	87.3	108	87.9	> 90			
mAb YFC51 (antibody)	103	95.1	98.4	101	111	0.08				> 90			
monoclonal antibody 6.5E			98.4			5.79				> 90			
monoclonal antibody CBRLFA-1/1	43.6	95.9	94.7	55.5	118	2.85	93.3	89.4	86.1	> 90	9.03	92.5	% of binding to the wild-type I-domain [16]: 80%; % of wild-type binding [17]: 40 to 50%
monoclonal antibody CLBLFA-1/1			94.6	96.5	100	6.69				> 90			
monoclonal antibody F8.8	93.7	83.6	97.6	102	93.9	98.2	99.6	95.5	95.9		91.9	94.5	
monoclonal antibody May.017			97.8			2.98				> 90			
monoclonal antibody May.035	92.6	82.1	95.8	92.6	101	93.3	95.4	106	95.8		97.4	96.2	
monoclonal antibody RR1/1													% inhibition [19]: 96%; % inhibition [20]: 97.9%
monoclonal antibody S6F1	89.4	95.3	6.19	97.4	85.7	9.7	86.4	92.3	98.3				
mouse anti-human αL (CD11a) monoclonal antibody TS1/11	94.4	93.7	96.5	96	105	41.3				> 90	45.2	94.1	% inhibition [21]: 40 to 60%
mouse anti-human αL (CD11a) monoclonal antibody TS2/14	85.5	83.3	96.2	95.4	103	8.55	100	103	103	> 90	2.95	94.5	

The next lines start with results.

% wild-type binding [4] [%]	% wild-type binding [5] [%]	% inhibition [6] [%]	% wild-type binding [7] [%]	% wild-type binding [8] [%]	% inhibition [9] [%]	% wild-type binding [10] [%]	% wild-type binding [11] [%]	% wild-type binding [12] [%]	% inhibition [13] [%]	% inhibition [14] [%]	% inhibition [15] [%]	Substance	also measured
93.1	90.9	92	88.5	85.7	2.53				> 90	3.71	90.5	monoclonal antibody 25-3-1	
92.4	85.8	97.5	92.4	97.6	90.7	92.4	88.3	93.3		91.1	97	monoclonal antibody BL5	
		97.8			3.6							monoclonal antibody CBRLFA-1/9	% wild-type binding [18]: 84.7%
88.7	102	97.5	87.3	106	63.7	104	93.7	99.3	> 90	49	95.7	mouse anti-human αL (CD11a) monoclonal antibody TS1/12	% inhibition [21]: 40 to 60%
95.8	91	96.9	93.1	110	93.6	96.2	92.2	103		95.1	95.8	mouse anti-human αL (CD11a) monoclonal antibody TS1/22	
		6.99			2.82							mouse anti-human αL (CD11a) monoclonal antibody TS2/4	
84.9	78.6	91.8	89.2	95.9	88.1	88.2	91.7	91.4		79.1	96.8	mouse anti-human αL (CD11a) monoclonal antibody TS2/6	
